In PMC7921949:

Molecular target: PD-L1 on CT26 murine colon cancer cells (mouse (CT26)) (UniProt Q9EP73)
Test: flow cytometry on CT26 cells
Settings: apparent Kd on whole cells, PBS, room temperature, 30 min, 2x10^5 CT26 cells in 250 uL, three PBS washes, Y = Bmax X/(Kd + X), n = 2

Sequence of PD-L1 on CT26 murine colon cancer cells (mouse (CT26)) (Q9EP73 19-290): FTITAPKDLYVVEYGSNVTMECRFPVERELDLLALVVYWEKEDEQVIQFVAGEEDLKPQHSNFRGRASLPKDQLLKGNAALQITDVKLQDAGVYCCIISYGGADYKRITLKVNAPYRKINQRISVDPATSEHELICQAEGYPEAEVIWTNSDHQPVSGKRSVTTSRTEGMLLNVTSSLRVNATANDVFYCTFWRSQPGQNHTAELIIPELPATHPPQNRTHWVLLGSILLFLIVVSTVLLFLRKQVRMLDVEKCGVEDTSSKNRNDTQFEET

Row | Sequence | Kd (tetravalent, first nt at 5' end of each strand phosphorothioate in some Apt-HJ, unclear for binding assay) | Kd
1 | CGGCGATCCGGCCATAGTGGATTGCGGGCCAGTGAAAAAAACGGGCCACATCAACTCATTGATAGACAATGCGTCCACTGCCCGT / CTCACTGGCCCGCAATCCTGAGCACGTGGCTGACGAAAAAACGGGCCACATCAACTCATTGATAGACAATGCGTCCACTGCCCGT / CCGTCAGCCACGTGCTCACCGAATGCTGCGCAACCAAAAAACGGGCCACATCAACTCATTGATAGACAATGCGTCCACTGCCCGT / CGGTTGCGCAGCATTCGGACTATGGCCGGATCGCCAAAAAACGGGCCACATCAACTCATTGATAGACAATGCGTCCACTGCCCGT [Apt-HJ (tetravalent aptamer Holliday junction)] | 0.145 µM | –
2 | ACGGGCCACATCAACTCATTGATAGACAATGCGTCCACTGCCCGT [free PD-L1 aptamer (Apt)] | – | 0.283 µM
